Measurements as given in the supplement of paper PMC10567573.

B1: MFF (parent)
chain: DDLTVVDAASLRRQIIKLNRRLQL

Variants of: B1
Assay: protein stability index of a GFP-peptide fusion (GPS, HEK-293T) (PSI 1-6); higher = more stable
Conditions: c terminus: a fixed tail appended
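Note: lentivirally expressed fusions sorted by FACS into six bins by GFP to DsRed ratio, PSI derived from sequencing read proportions per bin multiplied by bin number.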

Protein stability index: each site, then its substitutions
D7: H 3.12 | Q 2.17 | E 2.04 | T 1.64 | R 2.93 | P 2.71 | G 2.71 | C 1.4 | K 1.89 | S 2.24 | N 1.89 | A 2.29 | Y 1.61 | F 1.85 | M 2.19 | W 1.92
A8: F 2.35 | C 1.93 | N 2.63 | L 2.58 | I 1.61 | D 2.8 | W 2.17 | K 3.29 | V 1.9 | G 3.13 | T 1.69 | P 2.42 | E 2.63 | Q 2.38 | M 3.09 | Y 1.3 | R 2.57 | H 1.95 | S 2.49
T4: D 2.6 | Y 1.43 | E 2.21 | S 2.43 | R 2.18 | C 1.86 | A 1.91 | F 2.08 | N 2.3 | V 1.96 | L 2.62 | I 2.2 | H 1.7 | P 1.56 | K 2.15 | M 2.24 | Q 2.32
D2: R 1.82 | I 1.85 | P 2.45 | C 2.73 | E 1.72 | F 2.48 | N 2.22 | Y 2 | K 2.3 | A 2.37 | V 1.13 | M 2.09 | G 2.56 | Q 2.32 | W 2.86 | L 1.24 | H 2.02 | T 2.31 | S 2.24
S10: C 1.48 | D 2.05 | I 1.72 | E 2.13 | F 2.32 | A 1.7 | H 2.02 | K 1.79 | G 2.3
V5: H 2.69 | K 2.47 | M 2.05 | W 1.93 | D 2.37 | A 2.44 | P 2.42 | L 1.69 | S 2.5 | F 1.72 | C 1.72 | Y 2.17 | I 2.66 | R 1.7 | T 2.69 | E 2.38 | Q 2.26 | N 2.61
L3: H 2.73 | F 2.73 | C 2.33 | I 1.8 | S 2.57 | N 2.09 | W 1.48 | K 2.34 | T 2.2 | G 2.58 | Q 2.45 | M 3.06 | E 2.56 | A 2.59 | Y 1.96 | P 2.48 | V 2.8 | R 2.58 | D 2.58
D1: W 1.88 | L 1.61 | K 1.84 | N 2.1 | R 2.45 | I 2.32 | P 2.05 | M 1.98 | T 1.78 | Y 2.81 | Q 3.2 | S 2.28 | V 2.39
V6: L 2.37 | A 2.91 | F 2.29 | P 4.09 | W 2.4 | S 1.64 | H 2.71 | I 1.55 | K 2.35 | C 2.41 | E 2.08 | M 1.99 | N 2.4 | Y 1.77 | Q 1.9 | D 2.3 | G 3.34 | T 2.34 | R 2.91
A9: K 2.31 | C 2.03 | W 1.84 | R 4.18 | M 1.84 | Q 2.22 | Y 2.48 | D 2.02 | N 2.42 | F 1.58 | S 2.2 | L 2.08 | G 2.11 | I 2.79 | H 2.52 | T 1.82 | P 2.12 | E 2.13
